Measurements from the Human Domainome abundance scans (Beltran et al. 2025).

B1: Dystrobrevin alpha, residues 235 to 294; numbered along this chain, Q9Y4J8 (parent)
chain: ENVFHPVECSYCHSESMMGFRYRCQQCHNYQLCQDCFWRGHAGGSHSNQHQMKEYTSWKS

Variants of: B1
Assay: abundance fitness (aPCA) (normalised: wild type 0, dead -1); higher = more abundant; growth selection in yeast, the domain comes from the species named
Settings: Homo sapiens

Abundance fitness: each site, then its substitutions
P6: F -0.091 | G -0.063 | I -0.039 | L -0.176 | M -0.071 | N 0.049 | Q -0.191 | R -0.029 | V -0.089 | W -0.127 | Y -0.218
V7: A 0.063 | C 0.004 | D -0.012 | E 0.012 | F -0.428 | G -0.085 | H -0.055 | I -0.023 | K -0.086 | L -0.045 | M -0.08 | N 0.154 | P -0.009 | R -0.036 | S 0 | T -0.048 | W -0.072 | Y -0.161
E8: A -0.365 | D -0.206 | F -0.13 | G 0.051 | H -0.049 | I -0.104 | K -0.214 | L -0.233 | M -0.35 | N -0.17 | P -0.001 | Q -0.155 | R -0.222 | S -0.124 | T -0.234 | V -0.329 | W -0.39 | Y -0.157
C9: A -1.12 | D -0.904 | E -0.908 | F -1.25 | G -0.93 | H -1.26 | I -1.19 | K -0.901 | L -1.22 | M -1.31 | N -1.06 | P -0.969 | Q -1.05 | S -1.01 | V -1.1 | W -1.23 | Y -1.26
S10: C -0.018 | E -0.394 | F -0.351 | G -0.443 | I -0.588 | K -0.592 | L -0.693 | M -0.298 | N -0.183 | P -0.421 | Q -0.453 | R -0.476 | T -0.162 | V -0.746 | Y -0.343
Y11: A -0.208 | C -0.247 | D -0.313 | F 0.039 | G -0.099 | I -0.191 | M -0.055 | N -0.256 | P -0.658 | Q -0.223 | R -0.37 | S -0.219 | T -0.201 | V -0.193 | W -0.155
C12: A -0.883 | D -0.939 | E -0.997 | F -1.23 | G -0.762 | H -0.549 | I -1.1 | K -0.943 | L -1.22 | M -1.11 | N -0.746 | P -1.29 | Q -1 | R -0.768 | S -1.17 | T -0.868 | V -1.1 | W -1.27
H13: A -0.107 | C -0.176 | D -0.474 | E -0.23 | F -0.243 | G -0.027 | I -0.406 | K -0.027 | L -0.176 | M -0.109 | N -0.169 | P -0.677 | Q -0.172 | R -0.061 | S -0.096 | T -0.076 | V -0.457 | W -0.584 | Y -0.165
S14: A -0.051 | C -0.086 | D -0.13 | E -0.074 | F -0.622 | G -0.11 | H -0.081 | K -0.043 | L -0.153 | M -0.149 | N -0.003 | P -0.679 | Q -0.16 | R 0.042 | T -0.026 | V 0.088 | W -0.416 | Y -0.324
E15: A -0.041 | C -0.171 | D 0.195 | F -0.133 | G -0.105 | H 0.078 | I 0.018 | K -0.022 | L -0.087 | M 0.074 | N 0.03 | P 0.1 | Q 0.079 | R 0.054 | S 0.03 | T 0.034 | W -0.104 | Y -0.23
